± gives the standard deviation of the averaged measurements.

Drawing on the supplement of paper PMC10724198, this text covers protein stability index for 67 sequences.

The test system of the data set is Saccharomyces cerevisiae. The data set is described as follows: protein stability index of tFT-peptide fusion (C-terminal peptide) (PSI (0-1 scale)); higher = more stable (slower turnover). As to conditions: temperature: 30 C. The procedure: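 MPS profiling in S. cerevisiae of the yeast C-terminome library: the last 12 aa of each annotated ORF are fused to the C-terminus of a sfGFP-mCherry timer, after a GGGS linker. Cells are FACS-sorted into 8 mCherry/sfGFP bins and deep-sequenced. PSI runs from 0 (unstable) to 1 (stable); wild type and das1Δ backgrounds, two technical replicates each.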

The mark [1] stands for this setting: genetic background: das1 deletion.

For the sequence FCTVAKIIQCFL [YDR396W C-terminal 12 aa], the protein stability index by setting is: under setting [1], 0.5838 ± 0.0053; (genetic background: wild type) 0.4942 ± 0.0047.

Turning to FDAVTKTLEKYA [YKR070W C-terminal 12 aa], the protein stability index was determined as 0.68 ± 0.019 under setting [1] and 0.6879 ± 0.0054 (genetic background: wild type).

As for FDLIKLALQRKK [AGX1 C-terminal 12 aa], the protein stability index runs as follows: under setting [1], 0.7118 ± 0.0048; (genetic background: wild type) 0.68 ± 0.04.

Sequence FDREDAMKKENK [DPH2 C-terminal 12 aa] returned a protein stability index under setting [1] of 0.692 ± 0.024 and a protein stability index (genetic background: wild type) of 0.663 ± 0.059.

On to FDYDFLFGNDFA [OAF1 C-terminal 12 aa], for which the protein stability index by setting is: under setting [1], 0.791 ± 0.006; (genetic background: wild type) 0.75 ± 0.052.

As for “FFFSNSFLPASR [YJL127W-A C-terminal 12 aa]”, the protein stability index reads like this: under setting [1], 0.7317 ± 0.0022; (genetic background: wild type) 0.788 ± 0.11.

“FFTIEKYSVRRS [YOL013W-A C-terminal 12 aa]”: the protein stability index reads like this: under setting [1], 0.7332 ± 0.0047; (genetic background: wild type) 0.681 ± 0.01.

Take FGYESTDQILKL [NNR1 C-terminal 12 aa]: the protein stability index worked out at 0.738 ± 0.0047 under setting [1] and 0.708 ± 0.054 (genetic background: wild type).

On to FHHTSKTFAFAD [YGR219W C-terminal 12 aa], for which the protein stability index reads like this: under setting [1], 0.696 ± 0.022; (genetic background: wild type) 0.674 ± 0.0088.

As to FHLRHHKGAEEH [ATP17 C-terminal 12 aa], the protein stability index was 0.7076 ± 0.0039 under setting [1] and 0.678 ± 0.019 (genetic background: wild type).

On to FIAHLILTDALK [ULP1 C-terminal 12 aa], for which the protein stability index by setting is: under setting [1], 0.64 ± 0.025; (genetic background: wild type) 0.691 ± 0.039.

Take FIRFAINIHTFI [YJL009W C-terminal 12 aa]: the protein stability index came out at 0.46 ± 0.0057 under setting [1] and 0.377 ± 0.011 (genetic background: wild type).

FKQKYDADVLDK [RPL11A C-terminal 12 aa]: the protein stability index under setting [1] was determined as 0.6902 ± 0.0043 and the protein stability index (genetic background: wild type) turned out to be 0.735 ± 0.047.

As to FLPINVNDVPST [RGD3 C-terminal 12 aa], the protein stability index is, setting by setting: under setting [1], 0.716 ± 0.0089; (genetic background: wild type) 0.708 ± 0.069.

Regarding “FLWEMFELKLYL [YMR119W-A C-terminal 12 aa]”, the protein stability index runs as follows: under setting [1], 0.7071 ± 0.0016; (genetic background: wild type) 0.71 ± 0.036.

As for FMKELEMSEESD [RAD4 C-terminal 12 aa], the protein stability index under setting [1] was 0.693 ± 0.015 and the protein stability index (genetic background: wild type) worked out at 0.738 ± 0.028.

For the sequence FQSEYNISDILS [CEP3 C-terminal 12 aa], the protein stability index was found to be 0.703 ± 0.0092 under setting [1] and 0.745 ± 0.023 (genetic background: wild type).

Take FRHNRSNKKSGC [GEX2 C-terminal 12 aa]: the protein stability index reads like this: under setting [1], 0.707 ± 0.032; (genetic background: wild type) 0.668 ± 0.069.

On to FSAGNYKLPPGI [KTR3 C-terminal 12 aa], for which the protein stability index runs as follows: under setting [1], 0.68 ± 0.011; (genetic background: wild type) 0.7009 ± 0.0015.

For the sequence FSFSIFFFFCLA [YFR035C C-terminal 12 aa], the protein stability index runs as follows: under setting [1], 0.291 ± 0.017; (genetic background: wild type) 0.285 ± 0.0066.

Regarding FSFTEEPRIVMI [DCD1 C-terminal 12 aa], the protein stability index came out at 0.689 ± 0.02 under setting [1] and 0.699 ± 0.03 (genetic background: wild type).

Turning to FSNAGVEMQIRK [GNA1 C-terminal 12 aa], the protein stability index worked out at 0.702 ± 0.0064 under setting [1] and 0.736 ± 0.04 (genetic background: wild type).

For the sequence FSSEYLLVHVQQ [YLR458W C-terminal 12 aa], the protein stability index reads like this: under setting [1], 0.662 ± 0.011; (genetic background: wild type) 0.654 ± 0.036.

On to FSSSVMIIMKAS [NFT1 C-terminal 12 aa], for which the protein stability index runs as follows: under setting [1], 0.5186 ± 0.0012; (genetic background: wild type) 0.115 ± 0.0065.

Consider “FTFGTPIFLQLL [YFR010W-A C-terminal 12 aa]”, for which the protein stability index runs as follows: under setting [1], 0.653 ± 0.025; (genetic background: wild type) 0.579 ± 0.1.

As for FTFIIIQLFPAL [USE1 C-terminal 12 aa], the protein stability index was 0.351 ± 0.016 under setting [1] and 0.385 ± 0.015 (genetic background: wild type).

Consider FTLVGYDKEFSD [ADH6 C-terminal 12 aa], for which the protein stability index by setting is: under setting [1], 0.6911 ± 0.0014; (genetic background: wild type) 0.70114 ± 0.00043.

In the case of FVDDNTPLEHVC [YDL086W C-terminal 12 aa], the protein stability index is, setting by setting: under setting [1], 0.706 ± 0.011; (genetic background: wild type) 0.7331 ± 0.0011.

For the sequence FVDYKTHPVGAN [RGI1 C-terminal 12 aa], the protein stability index reads like this: under setting [1], 0.709 ± 0.01; (genetic background: wild type) 0.7141 ± 0.0028.

Turning to FVFALSYPYEEI [ALG2 C-terminal 12 aa], the protein stability index worked out at 0.713 ± 0.011 under setting [1] and 0.693 ± 0.038 (genetic background: wild type).

For FVKPGEICLREQ [RDH54 C-terminal 12 aa], the protein stability index is, setting by setting: under setting [1], 0.712 ± 0.039; (genetic background: wild type) 0.701 ± 0.014.

For the sequence FVNNKGNFKDLK [ARG3 C-terminal 12 aa], the protein stability index was 0.722 ± 0.025 under setting [1] and 0.686 ± 0.025 (genetic background: wild type).

As to FWFLFPLRLPGG [IRC16 C-terminal 12 aa], the protein stability index runs as follows: under setting [1], 0.5766 ± 0.0015; (genetic background: wild type) 0.5685 ± 0.0012.

As for FWNCVDGHLKYD [INM1 C-terminal 12 aa], the protein stability index runs as follows: under setting [1], 0.724 ± 0.0075; (genetic background: wild type) 0.715 ± 0.043.

Take FWTINDDYGFLT [YLR278C C-terminal 12 aa]: the protein stability index was 0.757 ± 0.029 under setting [1] and 0.77104 ± 0.00063 (genetic background: wild type).

With GAAIAGAAAMLL [TIR3 C-terminal 12 aa], the protein stability index under setting [1] stood at 0.718 ± 0.014 and the protein stability index (genetic background: wild type) turned out to be 0.713 ± 0.022.

For the sequence GAGVMAAAAMLL [TIR2 C-terminal 12 aa], the protein stability index under setting [1] was 0.714 ± 0.029 and the protein stability index (genetic background: wild type) was found to be 0.7089 ± 0.0066.

In the case of GALERKLHIDEN [MAM1 C-terminal 12 aa], the protein stability index was 0.6947 ± 0.0045 under setting [1] and 0.692 ± 0.046 (genetic background: wild type).

On to GAVYFFSKARKA [COX26 C-terminal 12 aa], for which the protein stability index by setting is: under setting [1], 0.7207 ± 0.0023; (genetic background: wild type) 0.654 ± 0.037.

For the sequence GCVRSMLRDLQR [GCR2 C-terminal 12 aa], the protein stability index by setting is: under setting [1], 0.6733 ± 0.0057; (genetic background: wild type) 0.686 ± 0.01.

For the sequence GEDPYADLFRDF [TPK1 C-terminal 12 aa], the protein stability index turned out to be 0.731 ± 0.0078 under setting [1] and 0.6846 ± 0.0053 (genetic background: wild type).

Regarding GEGGHFVIKKIS [DIT1 C-terminal 12 aa], the protein stability index came to 0.6854 ± 0.0056 under setting [1] and 0.20324 ± 5.1e-05 (genetic background: wild type).

In the case of GETIRVNYGSTQ [YJR154W C-terminal 12 aa], the protein stability index was 0.685 ± 0.0089 under setting [1] and 0.689 ± 0.039 (genetic background: wild type).

As to GEVVKTIIFGPE [SOR1 C-terminal 12 aa], the protein stability index is, setting by setting: under setting [1], 0.7 ± 0.017; (genetic background: wild type) 0.696 ± 0.029.

With GEYYNLIVPSLD [YGK3 C-terminal 12 aa], the protein stability index was found to be 0.7209 ± 0.0012 under setting [1] and 0.698 ± 0.014 (genetic background: wild type).

As to GFQTGSAKATSA [RPL37B C-terminal 12 aa], the protein stability index runs as follows: under setting [1], 0.703 ± 0.02; (genetic background: wild type) 0.697 ± 0.019.

GGLDCKSNVFMR [PAC1 C-terminal 12 aa] came in with a protein stability index under setting [1] of 0.697 ± 0.013 and a protein stability index (genetic background: wild type) of 0.723 ± 0.0089.

“GGNKQAPGLELG [YMR242W-A C-terminal 12 aa]”: the protein stability index is, setting by setting: under setting [1], 0.6918 ± 0.0046; (genetic background: wild type) 0.702 ± 0.006.

With “GIILRSCWNPRQ [YOL159C-A C-terminal 12 aa]”, the protein stability index under setting [1] came to 0.721 ± 0.019 and the protein stability index (genetic background: wild type) was determined as 0.69 ± 0.0087.

Turning to GILCSLMEFFTN [TDA6 C-terminal 12 aa], the protein stability index runs as follows: under setting [1], 0.727 ± 0.053; (genetic background: wild type) 0.712 ± 0.059.

Regarding GKKLVQEAFRIV [YPL039W C-terminal 12 aa], the protein stability index worked out at 0.715 ± 0.019 under setting [1] and 0.675 ± 0.035 (genetic background: wild type).

GKRIIGMLHLDS [PUF4 C-terminal 12 aa] displayed a protein stability index under setting [1] of 0.685 ± 0.037 and a protein stability index (genetic background: wild type) of 0.699 ± 0.01.

Consider GKSSKKKNRSRK [SSH4 C-terminal 12 aa], for which the protein stability index reads like this: under setting [1], 0.726 ± 0.052; (genetic background: wild type) 0.692 ± 0.018.

In turn, GLEKKKKKQNNQ [NPR1 C-terminal 12 aa] showed a protein stability index under setting [1] of 0.69 ± 0.015 and a protein stability index (genetic background: wild type) of 0.662 ± 0.0018.

For the sequence GLLFDKKKKARK [NOP19 C-terminal 12 aa], the protein stability index reads like this: under setting [1], 0.687 ± 0.012; (genetic background: wild type) 0.691 ± 0.043.

In the case of GNNNCPLHMDYI [STE5 C-terminal 12 aa], the protein stability index is, setting by setting: under setting [1], 0.7274 ± 0.0071; (genetic background: wild type) 0.723 ± 0.015.

As to GQTSRTVTPAPN [ITC1 C-terminal 12 aa], the protein stability index is, setting by setting: under setting [1], 0.726 ± 0.026; (genetic background: wild type) 0.6887 ± 0.0059.

As for GRGAISYSDITI [PEP5 C-terminal 12 aa], the protein stability index worked out at 0.707 ± 0.018 under setting [1] and 0.69 ± 0.0077 (genetic background: wild type).

Turning to GRLFEGMPGTET [ITT1 C-terminal 12 aa], the protein stability index by setting is: under setting [1], 0.709 ± 0.0093; (genetic background: wild type) 0.71 ± 0.03.

Consider GSEIDFTDYLGP [PUT3 C-terminal 12 aa], for which the protein stability index is, setting by setting: under setting [1], 0.729 ± 0.012; (genetic background: wild type) 0.716 ± 0.017.

For GSLLLGLISFLL [EGT2 C-terminal 12 aa], the protein stability index worked out at 0.669 ± 0.0091 under setting [1] and 0.6486 ± 0.0054 (genetic background: wild type).

Take GSSGRLTASPVY [PEX2 C-terminal 12 aa]: the protein stability index is, setting by setting: under setting [1], 0.696 ± 0.023; (genetic background: wild type) 0.684 ± 0.022.

For GTKEYCKMIDFL [YLR108C C-terminal 12 aa], the protein stability index runs as follows: under setting [1], 0.704 ± 0.014; (genetic background: wild type) 0.688 ± 0.019.

For GTKEYYKGYEYL [MRX16 C-terminal 12 aa], the protein stability index worked out at 0.6984 ± 0.0016 under setting [1] and 0.6641 ± 0.0017 (genetic background: wild type).

As to GTLESFFKRKAK [POL32 C-terminal 12 aa], the protein stability index runs as follows: under setting [1], 0.732 ± 0.015; (genetic background: wild type) 0.707 ± 0.03.

In the case of GVETLLDIFMKF [ARG82 C-terminal 12 aa], the protein stability index is, setting by setting: under setting [1], 0.74146 ± 0.00055; (genetic background: wild type) 0.706 ± 0.02.

As for GVFEADGLEAVH [YLR235C C-terminal 12 aa], the protein stability index reads like this: under setting [1], 0.717 ± 0.029; (genetic background: wild type) 0.7688 ± 0.0057.
